Measurements as given in article PMC11871066, “Structure-based discovery of hydrocarbon-stapled paxillin peptides that block FAK scaffolding in cancer” (Nature Communications, 2025).

Columns and labels:
Assay in all cases: SPR
[1] = biological target: T1, Peptide 2013, unstapled version of 1907, P49023; settings: chain shown with the change; right panel; peptide concentration not given
T1 chain: NL

[2] = biological target: T2, Stapled peptide 1907, P49023; settings: chain shown with the change; right panel; peptide concentration not given
T2 chain: NL

[3] = biological target: T3, Paxillin LD2 peptide (141-…-153); settings: chain shown with the change, right panel, peptide concentration not given
T3 chain: NLSELDRLLLELN

- ratio to parent [1]: 33
- ratio to parent [2]: 238
B1: Biotinylated AviTag FAK FAT protein, Q05397 I936E; L994E (protein)
chain: MAAAYLDPNLNHTPNSSTKTHLGTGMERSPGAMERVLKVFHYFESNSEPTTWASIIRHGDATDVRGIIQKIVDSHKVKHVACYGFRLSHLRSEEVHWLHVDMGVSSVREKYELAHPPEEWKYELRIRYLPKGFLNQFTEDKPTLNFFYQQVKSDYMLEIADQVDQEIALKLGCLEIRRSYWEMRGNALEKKSNYEVLEKDVGLKRFFPKSLLDSVKAKTLRKLIQQTFRQFANLNREESILKFFEILSPVYRFDKECFKCALGSSWIISVELAIGPEEGISYLTDKGCNPTHLADFTQVQTIQYSNSEDKDRKGMLQLKIAGAPEPLTVTAPSLTIAENMADLIDGYCRLVNGTSQSFIIRPQKEGERALPSIPKLANSEKQGMRTHAVSVSETDDYAEIIDEEDTYTMPSTRDYEIQRERIELGRCIGEGQFGDVHQGIYMSPENPALAVAIKTCKNCTSDSVREKFLQEALTMRQFDHPHIVKLIGVITENPVWIIMELCTLGELRSFLQVRKYSLDLASLILYAYQLSTALAYLESKRFVHRDIAARNVLVSSNDCVKLGDFGLSRYMEDSTYYKASKGKLPIKWMAPESINFRRFTSASDVWMFGVCMWEILMHGVKPFQGVKNNDVIGRIENGERLPMPPNCPPTLYSLMTKCWAYDPSRRPRFTELKAQLSTILEEEKAQQEERMRMESRRQATVSWDSGGSDEAPPKPSRPGYPSPRSSEGFYPSPQHMVQTNHYQVSGYPGSHGITAMAGSIYPGQASLLDQTDSWNHRPQEIAMWQPNVEDSTVLDLRGIGQVLPTHLMEERLIRQQQEMEEDQRWLEKEERFLKPDVRLSRGSIDREDGSLQGPIGNQHIYQPVGKPDPAAPPKKPPRPGAPGHLGSLASLSSPADSYNEGVKLQPQEISPPPTANLDRSNDKVYENVTGLVKAVEEMSSKIQPAPPEEYVPMVKEVGLALRTLLATVDETIPLLPASTHREIEMAQKLLNSDEGELINKMKLAQQYVMTSLQQEYKKQMLTAAHALAVDAKNLLDVIDQARLKMLGQTRPH
- ratio to parent [3]: 4
- response ([3]; plateau of the sensorgram near the end of injection (about 75 s), parent: est. 58, read off a plot): 14 RU
